# B1: KB_A12 (scFv, V domains shown)
# VH: EVQLVESGGGLVRPGGSLRLSCAASGFTFSSYAMSWVRQAPGKGLEWVSAISGSGGSTYYADSVKGRFTISRDNTKNSLYLQMTSLRADDTAFYYCVKDFGPGYGTGWFDYWGPGTLVTVSS
# VL: AVNWYQQLPGKAPKLLIYAAGRCPRILMRCKQDSDCLAGCVCGPNGFCGANSGVSDRFSAAKSGTSASLAINGLRSEDEADYYCAAWDDSLNGYVFGTGTKLTVLG
# B2: KB_A12 Kaliotoxin (antibody, V domains shown)
# VH: B1 VH
# VL: QSVLTQPPSVSEAPRQRVTITCSGSSSNIGNNAVNWYQQLPGKAPKLLIYAAGRGVEINVKCSGSPQCLKPCKDAGMRFGKCMNRKCHCTPKANSGVSDRFSAAKSGTSASLAINGLRSEDEADYYCAAWDDSLNGYVFGTGTKLTVLG
# B3: KB_A07 MoKa-1 (antibody, V domains shown)
# VH: B1 VH
# VL: DIQMTQSPSSLSASVGDRVTITCRASQSISSYLNWYQQKPGKAPKLLIYAAGVINVKCSLPQQCIKPCKDAGMRFGKCMNKKCRCYSSRSGVPSRFSGSGSGTDFTLTISSLQPEDFATYYCQQGASPPYTFGQGTKVEIKR
# B4: KB_A12 MoKa-1 (antibody, V domains shown)
# VH: B1 VH
# VL: QSVLTQPPSVSEAPRQRVTITCSGSSSNIGNNAVNWYQQLPGKAPKLLIYAAGRINVKCSLPQQCIKPCKDAGMRFGKCMNKKCRCYSANSGVSDRFSAAKSGTSASLAINGLRSEDEADYYCAAWDDSLNGYVFGTGTKLTVLG
# B5: KB_A07 (scFv, V domains shown)
# VH: B1 VH
# VL: YLNWYQQKPGKAPKLLIYAAGVCPRILMRCKQDSDCLAGCVCGPNGFCGSRSGVPSRFSGSGSGTDFTLTISSLQPEDFATYYCQQGASPPYTFGQGTKVEIKR
# B6: KB_A07 Shk (antibody, V domains shown)
# VH: B1 VH
# VL: NWYQQKPGKAPKLLIYAAGVRSCIDTIPKSRCTAFQCKHSMKYRLSFCRKTCGTCSRSGVPSRFSGSGSGTDFTLTISSLQPEDFATYYCQQGASPPYTFGQGTKVEIKR
# B7: KB_A07 Kaliotoxin (antibody, V domains shown)
# VH: B1 VH
# VL: DIQMTQSPSSLSASVGDRVTITCRASQSISSYLNWYQQKPGKAPKLLIYAAGVGVEINVKCSGSPQCLKPCKDAGMRFGKCMNRKCHCTPKSRSGVPSRFSGSGSGTDFTLTISSLQPEDFATYYCQQGASPPYTFGQGTKVEIKR
# B8: KB_A12 Shk (antibody, V domains shown)
# VH: B1 VH
# VL: NWYQQLPGKAPKLLIYAAGRRSCIDTIPKSRCTAFQCKHSMKYRLSFCRKTCGTCANSGVSDRFSAAKSGTSASLAINGLRSEDEADYYCAAWDDSLNGYVFGTGTKLTVLG
# B9: KB_A12_ProTx-III 2M 2Gly (antibody, V domains shown)
# VH: B1 VH
# VL: VNWYQQLPGKAPKLLIYAAGRGCLKFGWKCNPRNDKCCSGLKCGSNHNWCKWHIGGANSGVSDRFSAAKSGTSASLAINGLRSEDEADYYCAAWDDSLNGYVFGTGTKLTVLG
# B10: KB_A12_ProTx-III 2M Gly (antibody, V domains shown)
# VH: B1 VH
# VL: VNWYQQLPGKAPKLLIYAAGRGCLKFGWKCNPRNDKCCSGLKCGSNHNWCKWHIGANSGVSDRFSAAKSGTSASLAINGLRSEDEADYYCAAWDDSLNGYVFGTGTKLTVLG
# B11: KB_A07_ProTx-III 2M Gly (antibody, V domains shown)
# VH: B1 VH
# VL: […]
# Biological target: T1, human Nav1.7 (human, UniProt Q15858 1-1988)
# Experiment: cell-based or functional assay
# T1 sequence (Q15858 whole entry): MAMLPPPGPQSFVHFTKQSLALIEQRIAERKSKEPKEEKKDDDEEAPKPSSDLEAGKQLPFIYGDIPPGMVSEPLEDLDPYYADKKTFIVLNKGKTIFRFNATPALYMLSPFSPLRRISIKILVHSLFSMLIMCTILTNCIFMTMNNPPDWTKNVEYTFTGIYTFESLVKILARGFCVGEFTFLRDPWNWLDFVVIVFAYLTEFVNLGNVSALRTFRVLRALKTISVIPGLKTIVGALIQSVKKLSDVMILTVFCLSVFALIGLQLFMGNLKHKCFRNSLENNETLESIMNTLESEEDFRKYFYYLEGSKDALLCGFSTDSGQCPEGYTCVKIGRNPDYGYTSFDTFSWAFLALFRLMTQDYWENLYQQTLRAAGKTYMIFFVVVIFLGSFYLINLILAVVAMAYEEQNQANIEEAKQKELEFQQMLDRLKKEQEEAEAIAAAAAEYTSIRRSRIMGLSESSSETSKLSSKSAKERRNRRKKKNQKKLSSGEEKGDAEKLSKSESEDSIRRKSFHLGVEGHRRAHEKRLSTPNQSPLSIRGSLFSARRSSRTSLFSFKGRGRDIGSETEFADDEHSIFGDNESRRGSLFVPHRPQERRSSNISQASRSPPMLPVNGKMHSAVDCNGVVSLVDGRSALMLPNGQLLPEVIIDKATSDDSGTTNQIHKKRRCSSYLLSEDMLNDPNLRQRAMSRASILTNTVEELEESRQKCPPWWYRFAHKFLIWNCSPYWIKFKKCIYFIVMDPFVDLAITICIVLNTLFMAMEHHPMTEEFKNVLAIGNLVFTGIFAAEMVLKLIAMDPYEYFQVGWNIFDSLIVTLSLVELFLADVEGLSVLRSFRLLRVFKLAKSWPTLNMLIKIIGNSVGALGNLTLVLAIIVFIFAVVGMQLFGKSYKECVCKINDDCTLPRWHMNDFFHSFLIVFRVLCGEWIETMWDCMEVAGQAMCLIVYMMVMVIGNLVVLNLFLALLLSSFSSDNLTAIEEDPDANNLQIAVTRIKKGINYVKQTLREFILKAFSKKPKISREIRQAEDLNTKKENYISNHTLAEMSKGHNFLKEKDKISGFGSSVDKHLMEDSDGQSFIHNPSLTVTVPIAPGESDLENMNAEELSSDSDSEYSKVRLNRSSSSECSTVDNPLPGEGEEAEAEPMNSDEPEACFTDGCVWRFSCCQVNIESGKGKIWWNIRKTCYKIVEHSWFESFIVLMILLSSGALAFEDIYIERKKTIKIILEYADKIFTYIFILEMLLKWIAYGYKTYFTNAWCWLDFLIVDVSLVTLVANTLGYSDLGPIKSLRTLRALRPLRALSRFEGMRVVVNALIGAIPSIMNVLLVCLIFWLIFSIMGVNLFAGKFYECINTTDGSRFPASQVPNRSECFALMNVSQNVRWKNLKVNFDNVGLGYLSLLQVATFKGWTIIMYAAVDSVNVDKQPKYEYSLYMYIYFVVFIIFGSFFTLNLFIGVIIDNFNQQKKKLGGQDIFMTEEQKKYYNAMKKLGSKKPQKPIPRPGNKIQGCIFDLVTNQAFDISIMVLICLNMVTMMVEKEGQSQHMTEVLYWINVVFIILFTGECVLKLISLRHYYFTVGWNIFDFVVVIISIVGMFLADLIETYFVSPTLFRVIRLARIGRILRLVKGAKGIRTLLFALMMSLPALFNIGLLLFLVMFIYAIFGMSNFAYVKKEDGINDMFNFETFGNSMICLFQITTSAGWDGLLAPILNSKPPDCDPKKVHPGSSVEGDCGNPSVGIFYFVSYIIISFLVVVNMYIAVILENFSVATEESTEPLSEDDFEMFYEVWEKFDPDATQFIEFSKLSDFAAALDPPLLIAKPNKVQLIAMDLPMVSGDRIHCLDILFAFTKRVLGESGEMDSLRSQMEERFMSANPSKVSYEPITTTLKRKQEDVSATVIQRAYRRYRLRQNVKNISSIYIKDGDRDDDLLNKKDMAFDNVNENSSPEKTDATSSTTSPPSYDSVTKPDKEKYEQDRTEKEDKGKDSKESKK
row,Binder,IC50 of inhibition of Nav1.7 currents (extrapolated; IgG isotype control) [µM]
1,B1,> 100

# Biological target: T2, human Kv 1.3 (human, UniProt P22001 1-575)
# Experiment: cell-based or functional assay
# T2 sequence (P22001 whole entry): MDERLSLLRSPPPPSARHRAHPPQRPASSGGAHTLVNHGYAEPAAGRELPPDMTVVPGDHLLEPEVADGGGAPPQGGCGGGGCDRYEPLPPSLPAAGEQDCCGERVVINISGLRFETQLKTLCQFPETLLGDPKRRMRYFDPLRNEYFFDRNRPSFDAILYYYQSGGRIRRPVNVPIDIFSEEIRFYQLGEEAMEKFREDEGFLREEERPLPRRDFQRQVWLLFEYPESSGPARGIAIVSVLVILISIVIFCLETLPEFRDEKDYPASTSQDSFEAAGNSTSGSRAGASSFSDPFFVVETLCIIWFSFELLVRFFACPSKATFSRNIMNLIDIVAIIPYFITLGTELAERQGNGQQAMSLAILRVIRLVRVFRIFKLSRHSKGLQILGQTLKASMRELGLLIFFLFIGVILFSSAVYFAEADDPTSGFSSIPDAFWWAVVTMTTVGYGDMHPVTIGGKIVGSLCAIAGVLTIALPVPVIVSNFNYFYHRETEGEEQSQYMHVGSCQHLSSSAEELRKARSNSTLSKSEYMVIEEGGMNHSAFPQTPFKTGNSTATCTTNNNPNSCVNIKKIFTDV
row,Binder,IC50 of inhibition of huKv1.3 currents (extrapolated) [µM]
1,B2,> 10
2,B3,> 10
3,B4,> 10
4,B5,> 10
5,B1,> 10

# Biological target: T2, human Kv 1.3
# Experiment: cell-based or functional assay
# Remark: another data set of the same source
row,Binder,"IC50 of inhibition of huKv1.3 currents, QPatch whole-cell patch clamp, CHO cells [µM]"
1,B6,0.04
2,B7,0.9
3,B8,0.02

# Biological target: T1, human Nav1.7
# Experiment: cell-based or functional assay
# Remark: another data set of the same source
row,Binder,"IC50 of inhibition of Nav1.7 currents, QPatch, CHO cells [µM]"
1,B9,1.4
2,B10,1.5
3,B11,1.1

# Reference: patent US11932673 (IONTAS, dated 2024)
